Experimental findings from US20120301930A1 (YEDA RESEARCH AND DEVELOPMENT, published 2012) are described below.

T1: b-48A chimera (catalytic module of T. fusca exoglucanase Cel48A ligated with a dockerin from the Bacteroides …)
T1 construct: Recombinant chimera; all enzyme constructs were designed to contain a His-tag; also called variant Cel48A
T1 chain: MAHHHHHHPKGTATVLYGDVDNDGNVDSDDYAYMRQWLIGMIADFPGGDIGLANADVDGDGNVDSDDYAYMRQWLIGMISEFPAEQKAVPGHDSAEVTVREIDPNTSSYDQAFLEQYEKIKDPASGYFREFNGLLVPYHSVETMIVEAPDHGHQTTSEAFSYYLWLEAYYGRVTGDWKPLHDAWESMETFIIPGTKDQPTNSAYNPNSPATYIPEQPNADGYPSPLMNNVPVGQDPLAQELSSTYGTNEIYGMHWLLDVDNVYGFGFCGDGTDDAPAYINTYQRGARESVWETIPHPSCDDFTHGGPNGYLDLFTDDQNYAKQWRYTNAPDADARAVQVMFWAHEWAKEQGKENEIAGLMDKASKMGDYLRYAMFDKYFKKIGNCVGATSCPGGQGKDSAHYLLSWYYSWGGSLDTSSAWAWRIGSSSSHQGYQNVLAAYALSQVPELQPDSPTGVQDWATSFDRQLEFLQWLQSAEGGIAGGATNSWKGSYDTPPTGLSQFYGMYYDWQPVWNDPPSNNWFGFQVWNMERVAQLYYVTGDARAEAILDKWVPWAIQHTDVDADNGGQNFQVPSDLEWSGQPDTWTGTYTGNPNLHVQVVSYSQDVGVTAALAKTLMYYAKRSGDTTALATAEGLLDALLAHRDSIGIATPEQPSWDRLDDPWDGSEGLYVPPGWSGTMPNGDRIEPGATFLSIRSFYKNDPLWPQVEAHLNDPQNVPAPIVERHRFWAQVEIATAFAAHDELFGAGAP

T2: f-5A chimera (catalytic module of T. fusca family-5 endoglucanase Cel5A fused to a dockerin from Ruminococcus …)
T2 construct: Recombinant chimera expressed in E. coli; all enzyme constructs were designed to contain a His-tag; also called variant Cel5A
T2 chain: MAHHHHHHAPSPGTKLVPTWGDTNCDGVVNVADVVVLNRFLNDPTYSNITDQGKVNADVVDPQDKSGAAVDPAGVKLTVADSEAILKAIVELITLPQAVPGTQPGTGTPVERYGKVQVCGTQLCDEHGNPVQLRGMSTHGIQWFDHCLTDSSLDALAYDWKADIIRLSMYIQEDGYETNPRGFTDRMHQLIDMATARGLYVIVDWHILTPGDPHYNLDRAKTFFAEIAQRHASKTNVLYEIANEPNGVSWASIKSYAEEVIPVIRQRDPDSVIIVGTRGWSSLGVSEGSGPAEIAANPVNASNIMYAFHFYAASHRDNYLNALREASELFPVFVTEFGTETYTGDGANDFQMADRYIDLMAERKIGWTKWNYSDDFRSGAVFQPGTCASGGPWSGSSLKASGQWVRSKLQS

T3: Scaf-T single-cohesin scaffoldin (CBM with C. thermocellum cohesin) (Acetivibrio thermocellus (strain ATCC …, UniProt Q06851 361-706))
T3 construct: Individual single-cohesin scaffoldin; also called pScaf.T
T3 sequence: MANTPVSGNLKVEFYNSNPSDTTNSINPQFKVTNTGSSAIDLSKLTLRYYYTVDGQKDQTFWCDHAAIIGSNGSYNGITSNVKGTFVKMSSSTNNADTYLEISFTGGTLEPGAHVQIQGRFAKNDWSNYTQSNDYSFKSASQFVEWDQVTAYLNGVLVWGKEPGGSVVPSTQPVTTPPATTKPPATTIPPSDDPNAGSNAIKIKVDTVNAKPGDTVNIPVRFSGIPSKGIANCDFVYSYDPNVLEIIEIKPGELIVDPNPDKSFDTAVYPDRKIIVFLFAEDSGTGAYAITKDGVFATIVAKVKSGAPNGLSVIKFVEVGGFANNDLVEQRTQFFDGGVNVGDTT

B1: Scaf-B single-cohesin scaffoldin (CBM with B. cellulosolvens cohesin) (other)
chain: MANTPVSGNLKVEFYNSNPSDTTNSINPQFKVTNTGSSAIDLSKLTLRYYYTVDGQKDQTFWCDHAAIIGSNGSYNGITSNVKGTFVKMSSSTNNADTYLEISFTGGTLEPGAHVQIQGRFAKNDWSNYTQSNDYSFKSASQFVEWDQVTAYLNGVLVWGKEPGGSVVPSTQPVTTPPATTKPPATTIPPSDDPNAGSGKSSPGNKMKIQIGDVKANQGDTVIVPITFNEVPVMGVNNCNFTLAYDKNIMEFISADAGDIVTLPMANYSYNMPSDGLVKFLYNDQAQGAMSIKEDGTFANVKFKIKQSAAFGKYSVGIKAIGSISALSNSKLIPIESIFKDGSITVTN
notes: Individual single-cohesin scaffoldin
B2: Scaf AT chimeric scaffoldin (A. cellulolyticus cohesin 3, cellulose-binding CBM, cohesin 3 from the C. thermocellum CipA scaffoldin) (other)
chain: MDLQVDIGSTSGKAGSVVSVPITFTNVPKSGIYALSFRTNFDPQKVTVASIDAGSLIENASDFTTYYNNENGFASMTFEAPVDRARIIDSDGVFATINFKVSDSAKVGELYNITTNSAYTSFYYSGTDEIKNVVYNDGKIEVIASVPTNTPTNTPANTPVSGNLKVEFYNSNPSDTTNSINPQFKVTNTGSSAIDLSKLTLRYYYTVDGQKDQTFWCDHAAIIGSNGSYNGITSNVKGTFVKMSSSTNNADTYLEISFTGGTLEPGAHVQIQGRFAKNDWSNYTQSNDYSFKSASQFVEWDQVTAYLNGVLVWGKEPGGSVVPSTQPVTTPPATTKPPATTIPPSDDPNAIKIKVDTVNAKPGDTVNIPVRFSGIPSKGIANCDFVYSYDPNVLEIIEIKPGELIVDPNPDKSFDTAVYPDRKIIVFLFAEDSGTGAYAITKDGVFATIVAKVKSGAPNGLSVIKFVEVGGFANNDLVEQRTQFFDGGVNVGDIHHHHHH
B3: Scaf-ATF chimeric scaffoldin (cohesins A, T and F with the cellulose-binding CBM) (other)
chain: MDLQVDIGSTSGKAGSVVSVPITFTNVPKSGIYALSFRTNFDPQKVTVASIDAGSLIENASDFTTYYNNENGFASMTFEAPVDRARIIDSDGVFATINFKVSDSAKVGELYNITTNSAYTSFYYSGTDEIKNVVYNDGKIEVIASVPTNTPTNTPANTPVSGNLKVEFYNSNPSDTTNSINPQFKVTNTGSSAIDLSKLTLRYYYTVDGQKDQTFWCDHAAIIGSNGSYNGITSNVKGTFVKMSSSTNNADTYLEISFTGGTLEPGAHVQIQGRFAKNDWSNYTQSNDYSFKSASQFVEWDQVTAYLNGVLVWGKEPGGSVVPSTQPVTTPPATTKPPATTIPPSDDPNAIKIKVDTVNAKPGDTVNIPVRFSGIPSKGIANCDFVYSYDPNVLEIIEIKPGELIVDPNPDKSFDTAVYPDRKIIVFLFAEDSGTGAYAITKDGVFATIVAKVKSGAPNGLSVIKFVEVGGFANNDLVEQRTQFFDGGVNVGDIGSAGGLSAVQPNVSLGEVLDVSANRTAADGTVEWLIPTVTAAPGQTVTMPVVVKSSSLAVAGAQFKIQAATGVSYSSKTDGDAYGSGIVYNNSKYAFGQGAGRGIVAADDSVVLTLAYTVPADCAEGTYDVKWSDAFVSDTDGQNITSKVTLTDGAIIVHHHHHH
B4: Scaf-BF chimeric scaffoldin (cohesin from B. cellulosolvens ScaB, CBM3a from C. thermocellum, cohesin 1 from R. flavefaciens scaffoldin B) (other)
chain: MAGKSSPGNKMKIQIGDVKANQGDTVIVPITFNEVPVMGVNNCNFTLAYDKNIMEFISADAGDIVTLPMANYSYNMPSDGLVKFLYNDQAQGAMSIKEDGTFANVKFKIKQSAAFGKYSVGIKAIGSISALSNSKLIPIESIFKDGSITVTKVPTNTPTNTPANTPVSGNLKVEFYNSNPSDTTNSINPQFKVTNTGSSAIDLSKLTLRYYYTVDGQKDQTFWCDHAAIIGSNGSYNGITSNVKGTFVKMSSSTNNADTYLEISFTGGTLEPGAHVQIQGRFAKNDWSNYTQSNDYSFKSASQFVEWDQVTAYLNGVLVWGKEPGGSVVPSTQPVTTPPATTKPPATTIPPSEDPAGGLSAVQPNVSLGEVLDVSANRTAADGTVEWLIPTVTAAPGQTVTMPVVVKSSSLAVAGAQFKIQAATGVSYSSKTDGDAYGSGIVYNNSKYAFGQGAGRGIVAADDSVVLTLAYTVPADCAEGTYDVKWSDAFVSDTDGQNITSKVTLTDGAIIVHHHHHH
B5: Scaf-A single-cohesin scaffoldin (CBM with A. cellulolyticus cohesin) (other)
chain: MANTPVSGNLKVEFYNSNPSDTTNSINPQFKVTNTGSSAIDLSKLTLRYYYTVDGQKDQTFWCDHAAIIGSNGSYNGITSNVKGTFVKMSSSTNNADTYLEISFTGGTLEPGAHVQIQGRFAKNDWSNYTQSNDYSFKSASQFVEWDQVTAYLNGVLVWGKEPGGSVVPSTQPVTTPPATTKPPATTIPPSDDPNAGSDLQVDIGSTSGKAGSVVSVPITFTNVPKSGIYALSFRTNFDPQKVTVASIDAGSLIENASDFTTYYNNENGFASMTFEAPVDRARIIDSDGVFATINFKVSDSAKVGELYNITTNSAYTSFYYSGTDEIKNVVYNDGKIEVIAS
notes: Individual single-cohesin scaffoldin; also called pScaf-A
B6: 10B-t chimera (catalytic module of T. fusca Xyn10B attached directly to dockerin S of Cel48S from Clostridium thermocellum) (enzyme)
chain: MASHHHHHHGPVHDHHPAPHSNAKSERLRWAAPDGFYIGSAVAGGGHHLEQDYPDPFTHDGKYRSILAQQFSSVSPENQMKWEYIHPEPDRYDFAMADKIVDFAERNDQKVRGHTLLWHSQNPEWLEEGDYSPEELREILRDHITTVVGRYAGRIHQWDVANEIFDEQGNLRTQENIWIRELGPGIIADAFRWAHEADPNAELFFNDYNVEGINPKSDAYYELIQELLDDGVPVHGFSVQGHLSTRYGFPGDLEQNLRRFDELGLATAITELDVRMDLPASGKPTPKQLEQQADYYQQALEACLAVEGCDSFTIWGFTDKYSWVPVFFPDEGAATIMTEKYERKPAFFALQQTLREARCADSPKPGPGKPKPGKGPKHDHCTSTYKVPGTPSTKLYGDVNDDGKVNSTDAVALKRYVLRSGISINTDNADLNEDGRVNSTDLGILKRYILKEIDTLPYKN
notes: Recombinant chimera expressed in E. coli, purified on a Ni column (His-tag); also called variant Xyn10B

Assay [1] deals with T1, b-48A chimera (catalytic module of T. …). In words: affinity-based ELISA. A general note: An ELISA detects its analyte on a solid surface through an enzyme-linked reagent.
Assay [2] addresses T4, 11A-a chimera (catalytic module of T. fusca Xyn11A attached directly to dockerin B from Acetivibrio …).
T4 construct: Recombinant chimera expressed in E. coli, purified on a Ni column (His-tag)
In words: affinity-based ELISA; complex formation also by non-denaturing PAGE.

Assay [3] has as its target T5, 11A-XBM-a chimera (catalytic module of T. fusca Xyn11A together with its adjacent XBM attached to dockerin B …).
T5 construct: Recombinant chimera expressed in E. coli, purified on a Ni column (His-tag); also called variant Xyn11A
The description is as above.

Assay [4] deals with B6. Described as above.
For assay [5], the target named is T2, f-5A chimera (catalytic module of T. …). The assay is described as above.
Assay [6] concerns the target T1, b-48A chimera (catalytic module of T. …). The assay is described as above.
For assay [7], the target named is T4, 11A-a chimera (catalytic module of T. …). In words: affinity-based ELISA.
The target of assay [8] is T5, 11A-XBM-a chimera (catalytic module of …). In words: affinity-based ELISA.
Assay [9] has as its target T3, Scaf-T single-cohesin scaffoldin (CBM …). Briefly: affinity-based ELISA.

B1: the binding result in assay [1] is “binds”.
For the molecule B2, the binding result in assay [2], in assay [3] and in [4] was “binds” in each case.
Consider B3, for which the binding result in assay [5], in [2], in [3] and in assay [4] was “binds” in each case.
With B4, the binding result in assay [5] and in assay [6] was “binds” each time.
For the molecule B5, the binding result in [7] and in [8] was “binds” each time.
In the case of B6, the binding result in assay [9] is listed as “binds”.
